Measured values taken from patent publication US20150125397A1 (AbbVie / Abbott, published 2015).

B1: DVD3751 (bispecific antibody, human IgG1, kappa)
heavy: not shown
light: DVVMTQTPLSLPVSLGDQASISCRSSQSLVHSNGNTYLHWYLQKPGQSPKLLIYKVSNRFSGVPDRFSGSGSGTDFTLKISRVEAEDLGAYFCSQSTHVPYTFGGPTRLEIKRGGSGGGGSGNTVMTQSPTSMFISVGDRVTMNCKASQNVGSDVDWYQQKTGQSPKLLISGTSNRYTGVPDRFTGSGSGTDFTLTISNMQAEDLAVYYCLQYNYNPTFGAGTKLELKRTVAAPSVFIFPPSDEQLKSGTASVVCLLNNFYPREAKVQWKVDNALQSGNSQESVTEQDSKDSTYSLSSTLTLSKADYEKHKVYACEVTHQGLSSPVTKSFNRGEC
notes: Four-chain DVD-Ig
B2: DVD3756 (bispecific antibody, human IgG1, kappa)
heavy: not shown
light: NTVMTQSPTSMFISVGDRVTMNCKASQNVGSDVDWYQQKTGQSPKLLISGTSNRYTGVPDRFTGSGSGTDFTLTISNMQAEDLAVYYCLQYNYNPTFGAGTKLELKRGGSGGGGSGDVVMTQTPLSLPVSLGDQASISCRSSQSLVHSNGNTYLHWYLQKPGQSPKLLIYKVSNRFSGVPDRFSGSGSGTDFTLKISRVEAEDLGAYFCSQSTHVPYTFGGPTRLEIKRTVAAPSVFIFPPSDEQLKSGTASVVCLLNNFYPREAKVQWKVDNALQSGNSQESVTEQDSKDSTYSLSSTLTLSKADYEKHKVYACEVTHQGLSSPVTKSFNRGEC
notes: Four-chain DVD-Ig
B3: DVD3754 (bispecific antibody, human IgG1, kappa)
heavy: not shown
light: DVVMTQTPLSLPVSLGDQASISCRSSQSLVHSNGNTYLHWYLQKPGQSPKLLIYKVSNRFSGVPDRFSGSGSGTDFTLKISRVEAEDLGAYFCSQSTHVPYTFGGPTRLEIKRTVAAPSVFIFPPNTVMTQSPTSMFISVGDRVTMNCKASQNVGSDVDWYQQKTGQSPKLLISGTSNRYTGVPDRFTGSGSGTDFTLTISNMQAEDLAVYYCLQYNYNPTFGAGTKLELKRTVAAPSVFIFPPSDEQLKSGTASVVCLLNNFYPREAKVQWKVDNALQSGNSQESVTEQDSKDSTYSLSSTLTLSKADYEKHKVYACEVTHQGLSSPVTKSFNRGEC
notes: Four-chain DVD-Ig; also called IgM/DNA DVD3754
B4: DVD3757 (bispecific antibody, human IgG1, kappa)
heavy: not shown
light: NTVMTQSPTSMFISVGDRVTMNCKASQNVGSDVDWYQQKTGQSPKLLISGTSNRYTGVPDRFTGSGSGTDFTLTISNMQAEDLAVYYCLQYNYNPTFGAGTKLELKRTVAAPDVVMTQTPLSLPVSLGDQASISCRSSQSLVHSNGNTYLHWYLQKPGQSPKLLIYKVSNRFSGVPDRFSGSGSGTDFTLKISRVEAEDLGAYFCSQSTHVPYTFGGPTRLEIKRTVAAPSVFIFPPSDEQLKSGTASVVCLLNNFYPREAKVQWKVDNALQSGNSQESVTEQDSKDSTYSLSSTLTLSKADYEKHKVYACEVTHQGLSSPVTKSFNRGEC
notes: Four-chain DVD-Ig
B5: DVD3760 (bispecific antibody, human IgG1, kappa)
heavy: not shown
light: NTVMTQSPTSMFISVGDRVTMNCKASQNVGSDVDWYQQKTGQSPKLLISGTSNRYTGVPDRFTGSGSGTDFTLTISNMQAEDLAVYYCLQYNYNPTFGAGTKLELKRTVAAPDVVMTQTPLSLPVSLGDQASISCRSSQSLVHSNGNTYLHWYLQKPGQSPKLLIYKVSNRFSGVPDRFSGSGSGTDFTLKISRVEAEDLGAYFCSQSTHVPYTFGGPTRLEIKRTVAAPSVFIFPPSDEQLKSGTASVVCLLNNFYPREAKVQWKVDNALQSGNSQESVTEQDSKDSTYSLSSTLTLSKADYEKHKVYACEVTHQGLSSPVTKSFNRGEC
notes: Four-chain DVD-Ig
B6: DVD3755 (bispecific antibody, human IgG1, kappa)
heavy: not shown
light: DVVMTQTPLSLPVSLGDQASISCRSSQSLVHSNGNTYLHWYLQKPGQSPKLLIYKVSNRFSGVPDRFSGSGSGTDFTLKISRVEAEDLGAYFCSQSTHVPYTFGGPTRLEIKRTVAAPNTVMTQSPTSMFISVGDRVTMNCKASQNVGSDVDWYQQKTGQSPKLLISGTSNRYTGVPDRFTGSGSGTDFTLTISNMQAEDLAVYYCLQYNYNPTFGAGTKLELKRTVAAPSVFIFPPSDEQLKSGTASVVCLLNNFYPREAKVQWKVDNALQSGNSQESVTEQDSKDSTYSLSSTLTLSKADYEKHKVYACEVTHQGLSSPVTKSFNRGEC
notes: Four-chain DVD-Ig
B7: DVD3752 (bispecific antibody, human IgG1, kappa)
heavy: not shown
light: DVVMTQTPLSLPVSLGDQASISCRSSQSLVHSNGNTYLHWYLQKPGQSPKLLIYKVSNRFSGVPDRFSGSGSGTDFTLKISRVEAEDLGAYFCSQSTHVPYTFGGPTRLEIKRTVAAPNTVMTQSPTSMFISVGDRVTMNCKASQNVGSDVDWYQQKTGQSPKLLISGTSNRYTGVPDRFTGSGSGTDFTLTISNMQAEDLAVYYCLQYNYNPTFGAGTKLELKRTVAAPSVFIFPPSDEQLKSGTASVVCLLNNFYPREAKVQWKVDNALQSGNSQESVTEQDSKDSTYSLSSTLTLSKADYEKHKVYACEVTHQGLSSPVTKSFNRGEC
notes: Four-chain DVD-Ig
B8: DVD3759 (bispecific antibody, human IgG1, kappa)
heavy: not shown
light: NTVMTQSPTSMFISVGDRVTMNCKASQNVGSDVDWYQQKTGQSPKLLISGTSNRYTGVPDRFTGSGSGTDFTLTISNMQAEDLAVYYCLQYNYNPTFGAGTKLELKRTVAAPSVFIFPPDVVMTQTPLSLPVSLGDQASISCRSSQSLVHSNGNTYLHWYLQKPGQSPKLLIYKVSNRFSGVPDRFSGSGSGTDFTLKISRVEAEDLGAYFCSQSTHVPYTFGGPTRLEIKRTVAAPSVFIFPPSDEQLKSGTASVVCLLNNFYPREAKVQWKVDNALQSGNSQESVTEQDSKDSTYSLSSTLTLSKADYEKHKVYACEVTHQGLSSPVTKSFNRGEC
notes: Four-chain DVD-Ig

Key:
[1] = biological target: mouse IgM B cell receptor on primary murine B cells (mouse); test: cell-based or functional assay
mouse IgM = mouse IgM (mouse, UniProt P01872 1-454); test: IgM binding ELISA, mIgM coated on plate
Sequence of mouse IgM (P01872 whole entry): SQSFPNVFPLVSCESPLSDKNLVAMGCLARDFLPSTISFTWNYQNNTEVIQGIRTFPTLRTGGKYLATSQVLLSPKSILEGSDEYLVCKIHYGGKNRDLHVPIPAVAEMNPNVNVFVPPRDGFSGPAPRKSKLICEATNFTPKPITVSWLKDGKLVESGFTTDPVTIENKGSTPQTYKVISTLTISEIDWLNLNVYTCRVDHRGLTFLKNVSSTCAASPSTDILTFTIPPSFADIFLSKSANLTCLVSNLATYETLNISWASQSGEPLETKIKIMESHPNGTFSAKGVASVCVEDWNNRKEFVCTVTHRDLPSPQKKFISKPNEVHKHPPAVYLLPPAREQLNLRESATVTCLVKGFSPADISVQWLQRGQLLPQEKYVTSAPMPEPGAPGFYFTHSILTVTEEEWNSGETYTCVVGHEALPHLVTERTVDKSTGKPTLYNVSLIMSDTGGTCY

Binder | ^3H incorporation, AM14 TLR9-/- B cells [1] | ^3H incorporation, AM14 WT B cells [1] | EC50 (mouse IgM) [µg/mL]
B1 | 1180 | 35600 | 0.191
B2 | 459 | 7790 | 0.0331
B3 | 1600 | 35200 | 0.117
B4 | 382 | 4060 | 0.0418
B5 | 302 | 4340 | 0.0353
B6 | 402 | 8500 | 0.0971
B7 | 512 | 12700 | 0.205
B8 | 970 | 18600 | 0.0412
